Laboratory results from patent US20070293451A1, “Regulation ao ApoB by Hsp110 proteins and related compositions and methods” (University of Pittsburgh, priority 2006, published 2007).

B1: Sse1p: active, recombinant purified yeast Hsp110 homolog Sse1p (GenBank NP_015219) (protein)
chain: STPFGLDLGNNNSVLAVARNRGIDIVVNEVSNRSTPSVVGFGPKNRYLGETGKNKQTSNIKNTVANLKRIIGLDYHHPDFEQESKHFTSKLVELDDKKTGAEVRFAGEKHVFSATQLAAMFIDKVKDTVKQDTKANITDVCIAVPPWYTEEQRYNIADAARIAGLNPVRIVNDVTAAGVSYGIFKTDLPEGEEKPRIVAFVDIGHSSYTCSIMAFKKGQLKVLGTACDKHFGGRDFDLAITEHFADEFKTKYKIDIRENPKAYNRILTAAEKLKKVLSANTNAPFSVESVMNDVDVSSQLSREELEELVKPLLERVTEPVTKALAQAKLSAEEVDFVEIIGGTTRIPTLKQSISEAFGKPLSTTLNQDEAIAKGAAFICAIHSPTLRVRPFKFEDIHPYSVSYSWDKQVEDEDHMEVFPAGSSFPSTKLITLNRTGDFSMAASYTDITQLPPNTPEQIANWEITGVQLPEGQDSVPVKLKLRCDPSGLHTIEEAYTIEDIEVEEPIPLPEDAPEDAEQEFKKVTKTVKKDDLTIVAHTFGLDAKKLNELIEKENEMLAQDKLVAETEDRKNTLEEYIYTLRGKLEEEYAPFASDAEKTKLQGMLNKAEEWLYDEGFDSIKAKYIAKYEELASLGNIIRGRYLAKEEEKKQAIRSKQEASQMAAMAEKLAAQRKAEAEKKEEKKDTEGDVDMD
B2: Hsp110: human Hsp110 over-expressed from an expression vector in McArdle cells (protein, UniProt Q92598 2-858, looked up)
Heat shock protein 105 kDa: SVVGLDVGSQSCYIAVARAGGIETIANEFSDRCTPSVISFGSKNRTIGVAAKNQQITHANNTVSNFKRFHGRAFNDPFIQKEKENLSYDLVPLKNGGVGIKVMYMGEEHLFSVEQITAMLLTKLKETAENSLKKPVTDCVISVPSFFTDAERRSVLDAAQIVGLNCLRLMNDMTAVALNYGIYKQDLPSLDEKPRIVVFVDMGHSAFQVSACAFNKGKLKVLGTAFDPFLGGKNFDEKLVEHFCAEFKTKYKLDAKSKIRALLRLYQECEKLKKLMSSNSTDLPLNIECFMNDKDVSGKMNRSQFEELCAELLQKIEVPLYSLLEQTHLKVEDVSAVEIVGGATRIPAVKERIAKFFGKDISTTLNADEAVARGCALQCAILSPAFKVREFSVTDAVPFPISLIWNHDSEDTEGVHEVFSRNHAAPFSKVLTFLRRGPFELEAFYSDPQGVPYPEAKIGRFVVQNVSAQKDGEKSRVKVKVRVNTHGIFTISTASMVEKVPTEENEMSSEADMECLNQRPPENPDTDKNVQQDNSEAGTQPQVQTDAQQTSQSPPSPELTSEENKIPDADKANEKKVDQPPEAKKPKIKVVNVELPIEANLVWQLGKDLLNMYIETEGKMIMQDKLEKERNDAKNAVEEYVYEFRDKLCGPYEKFICEQDHQNFLRLLTETEDWLYEEGEDQAKQAYVDKLEELMKIGTPVKVRFQEAEERPKMFEELGQRLQHYAKIAADFRNKDEKYNHIDESEMKKVEKSVNEVMEWMNNVMNAQAKKSLDQDPVVRAQEIKTKIKELNNTCEPVVTQPKPKIESPKLERTPNGPNIDKKEEDLEDKNNFGAEPPHQNGECYPNEKNSVNMDLD

Key:
ApoB48 = experiment: In vitro ApoB48 degradation assay in yeast cytosol with added purified protein; type: biochemical; conditions: purified protein added to wild type (SSE1) or delete (sse1) cytosols
Protocol: In vitro Analysis of ApoB Degradation: ^35S methionine labeled ApoB48 was synthesized in the presence of canine pancreatic microsomes (DPM; Promega, Madison, Wis.) using the SP6-TNT Kit (Promega) and plasmid pSPB48 (see above) as previously described (Gusarova, et al., 2001). The reaction mixture was then layered onto 1 mL SH buffer (0.25M sucrose, 5 mM Hepes, pH 7.4) and centrifuged at 100,000g for 30 min at 4° C. The microsomal pellets were resuspended in 12 μl of 2×PH buffer (40 mM HEPES, pH 7.4, 220 mM KCl, 10 mM MgCl2) and pooled. Cytosol, prepared as previously described (McCracken and Brodsky, 1996), was diluted to a specified concentration and pre-incubated with 0.25 mM MG132 (Peptides International) or an equivalent volume of DMSO for 15 min on ice. Following the pre-incubation, cytosol and ApoB48 were mixed 1:1 with these reagents at final concentrations of, 2 mM ATP, 10 mM creatine phosphate, and 100μg/mL creatine phosphokinase. Aliquots of the reaction were incubated at 37° C. for 5, 15 and 30 min or the indicated times and the reaction was quenched by adding an equal volume of 2×Urea Buffer (125 mM Tris, pH 6.8, 4% SDS, 6M Urea, 1 mM EDTA, 10 mM DTT, 250 mM β-mercaptoethanol, 20% Glycerol) and the mixture was heated at 96° C. for 4 min. […] Phosphorimager data was analyzed using Image Gauge software (Fuji Film Science Lab). […]

albumin = experiment: Albumin secretion from McArdle cells (control); type: cell-based, rat; conditions: Hsp110 over-expressed or not
Protocol: (§1) FIGS. 9A and 9B show the effect of Hsp110 over-expression on ApoB100 secretion from McArdle cells, a standard rat hepatoma cell model of lipoprotein metabolism. ApoB100 (FIG. 9A) and albumin (FIG. 9B) biogenesis and secretion were assessed by published pulse-chase analytical methods.
(§2) An Hsp110 expression vector was obtained from Dr. John Subjeck (Roswell Park Cancer Center, N.Y.), and either that vector or a vector control was introduced into McArdle cells—a rat hepatoma cell line that also expresses full-length ApoB (that is, ApoB100). […] As a control, there was no effect on albumin secretion from these cells, regardless of whether Hsp110 was over-expressed (FIG. 9B). Furthermore, the over-expression of Hsp110 in the McArdle cells in the presence of a microsomal triglyceride transfer protein (MTP) inhibitor (BMS-200150; Jamil, H., D. A. Gordon, D. C. Eustice, C. M. Brooks, J. K. Dickson, Jr., Y. Chen, B. Ricci, C.-H. Chu, T. W. Harrity, C. P. Ciosek, Jr., S. A. Biller, R. E. Gregg, and J. R. Wetterau. 1996. An inhibitor of the microsomal triglyceride transfer protein inhibits apoB secretion from HepG2 cells. Proc Natl Acad Sci USA. 93, 11991-95) increased the percent of apoB recovered in the lysate and medium fractions from 14% to 28% (data not shown).

ApoB100 = ApoB100 biogenesis and secretion from McArdle cells (pulse-chase) on Hsp110 over-expression; type: cell-based, rat
Protocol: as §1, §2

Row | Molecule | effect on ApoB48 in vitro (ApoB48) | effect on albumin secretion (albumin) | percent of apoB recovered in the lysate and medium fractions (ApoB100; Hsp110 over-expression in the presence of MTP inhibitor BMS-200150, data not shown) | amount of ApoB100 in cell extracts (ApoB100; especially notable at 30 min time point) | increase in the amount of ApoB 100 secreted (ApoB100; medium, Hsp110 vector vs vector control)
1 | B1 | stabilizes ApoB48 | – | – | – | –
2 | B2 | – | no effect | 28% | concomitant increase | ~2 fold
